Experimental data from patent US20220160874A1.

Molecular target: CNTF receptor expressed on TF-1.CN5a.1 (ATCC CRL-2512) cells (UniProt P26992)
Assay: cell-based or functional assay

UniProt P26992, sequence (P26992 23-342 limits assumed): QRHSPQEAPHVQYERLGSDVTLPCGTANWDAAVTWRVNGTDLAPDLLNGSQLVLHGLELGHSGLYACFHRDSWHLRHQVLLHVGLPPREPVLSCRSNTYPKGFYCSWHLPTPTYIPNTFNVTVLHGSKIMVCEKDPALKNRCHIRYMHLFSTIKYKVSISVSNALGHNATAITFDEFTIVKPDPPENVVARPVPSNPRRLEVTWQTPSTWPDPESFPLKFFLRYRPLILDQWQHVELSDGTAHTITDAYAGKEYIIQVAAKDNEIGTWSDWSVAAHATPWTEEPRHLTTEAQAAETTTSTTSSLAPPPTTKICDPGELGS

CNTF control protein (Life Technologies) (ligand)
EC50, TF-1.CN5a.1 cell proliferation: 0.11 pM
